# *1 amine or outer side, *2 acyl side, *3 side chain or, on linkers, in order; H or OH if unused. Where no end group is shown, it is not given here. Side-chain parts run from the residue outwards. [ ]: non-standard residue; d: D form. The star is where a group is joined. αMePhe(2-F) = C[C@](N)(Cc1ccccc1F)C(=O)O; γGlu = O=C(O)[C@H](CCC(=O)[*:2])N[*:1]; C14 diacid = O=C(O)CCCCCCCCCCCCC(=O)*; αMeY = C[C@](N)(Cc1ccc(O)cc1)C(=O)O; αMeF = C[C@](N)(Cc1ccccc1)C(=O)O; αMeL = CC(C)C[C@](C)(N)C(=O)O; Orn = NCCC[C@H](N)C(=O)O; AEEA = NCCOCCOCC(=O)O; Aib = CC(C)(N)C(=O)O
# T1: human GIP receptor (human, UniProt P48546 22-466)
# T1 sequence (looked up): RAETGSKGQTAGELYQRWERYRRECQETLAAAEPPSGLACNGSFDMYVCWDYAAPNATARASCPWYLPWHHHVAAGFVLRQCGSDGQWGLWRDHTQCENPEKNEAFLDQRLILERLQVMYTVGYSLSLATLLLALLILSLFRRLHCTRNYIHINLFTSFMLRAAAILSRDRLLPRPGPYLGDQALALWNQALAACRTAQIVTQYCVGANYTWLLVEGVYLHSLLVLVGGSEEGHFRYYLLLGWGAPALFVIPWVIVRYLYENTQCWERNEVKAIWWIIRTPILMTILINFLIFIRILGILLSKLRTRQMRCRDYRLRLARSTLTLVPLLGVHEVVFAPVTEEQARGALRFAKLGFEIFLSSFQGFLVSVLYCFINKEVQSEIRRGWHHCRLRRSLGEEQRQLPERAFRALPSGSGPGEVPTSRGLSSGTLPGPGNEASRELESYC
# What was measured:
# Experiment in all cases: cell-based or functional assay
# human glucagon receptor = human glucagon receptor (human, UniProt P47871 26-477)
# human GLP-1 receptor = human GLP-1 receptor (human, UniProt P43220 24-463)
# human GIP receptor = biological target: T1, human GIP receptor
Binder,"EC50, cAMP (human glucagon receptor) [nM]","EC50, cAMP (human GLP-1 receptor) [nM]","Emax, cAMP (human GLP-1 receptor) [%]","EC50, cAMP (human GIP receptor) [nM]","Emax, cAMP (human GIP receptor) [%]"
Y[Aib]EGT[αMePhe(2-F)]TSDK([AEEA-AEEA-γGlu-C14 diacid])SI[αMeL]LD[Orn]IAQ[Aib]EFI[dE][αMeY]LIEGGK([AEEA-AEEA-γGlu-C14 diacid])SSGAPPPS-NH2 (N-terminus assumed; SMILES CC[C@H](C)[C@H](NC(=O)[C@H](CCCN)NC(=O)[C@H](CC(=O)O)NC(=O)[C@H](CC(C)C)NC(=O)[C@](C)(CC(C)C)NC(=O)[C@@H](NC(=O)[C@H](CO)NC(=O)[C@H](CCCCNC(=O)COCCOCCNC(=O)COCCOCCNC(=O)CC[C@H](NC(=O)CCCCCCCCCCCCC(=O)O)C(=O)O)NC(=O)[C@H](CC(=O)O)NC(=O)[C@H](CO)NC(=O)[C@@H](NC(=O)[C@](C)(Cc1ccccc1F)NC(=O)[C@@H](NC(=O)CNC(=O)[C@H](CCC(=O)O)NC(=O)C(C)(C)NC(=O)[C@@H](N)Cc1ccc(O)cc1)[C@@H](C)O)[C@@H](C)O)[C@@H](C)CC)C(=O)N[C@@H](C)C(=O)N[C@@H](CCC(N)=O)C(=O)NC(C)(C)C(=O)N[C@@H](CCC(=O)O)C(=O)N[C@@H](Cc1ccccc1)C(=O)N[C@H](C(=O)N[C@H](CCC(=O)O)C(=O)N[C@@](C)(Cc1ccc(O)cc1)C(=O)N[C@@H](CC(C)C)C(=O)N[C@H](C(=O)N[C@@H](CCC(=O)O)C(=O)NCC(=O)NCC(=O)N[C@@H](CCCCNC(=O)COCCOCCNC(=O)COCCOCCNC(=O)CC[C@H](NC(=O)CCCCCCCCCCCCC(=O)O)C(=O)O)C(=O)N[C@@H](CO)C(=O)N[C@@H](CO)C(=O)NCC(=O)N[C@@H](C)C(=O)N1CCC[C@H]1C(=O)N1CCC[C@H]1C(=O)N1CCC[C@H]1C(=O)N[C@@H](CO)C(N)=O)[C@@H](C)CC)[C@@H](C)CC) [Example 108],> 9950,0.701,97.6,0.0249,85.2
"YXEGTXTSDKSIXLDXIAQXKXIXXLIEGGPSSGAPPPS (Aib2, αMeF(2F)6, αMeL13, Orn16, Aib20, αMeF22, D-Glu24, αMeY25, K10 and K21: K(AEEA2-(γ-Glu)-CO-(CH2)12-CO2H), C-terminal NH2) [Example 109]",> 9950,0.846,,0.0236,84.8
Y[Aib]EGT[αMePhe(2-F)]TSDK([AEEA-AEEA-γGlu-C14 diacid])SI[αMeL]LD[Orn]IAQ[Aib]E[αMeF]IK([AEEA-AEEA-γGlu-C14 diacid])[αMeY]LIEGGPSSGAPPPS-NH2 [Example 110],> 9950,1.43,98.8,0.0417,
Y[Aib]EGT[αMePhe(2-F)]TSDK([AEEA-AEEA-γGlu-C14 diacid])SI[αMeL]LD[Orn]IAQ[Aib]E[αMeF]I[dE][αMeY]LIK([AEEA-AEEA-γGlu-C14 diacid])GGPSSGAPPPS-NH2 (N-terminus assumed; SMILES CC[C@H](C)[C@H](NC(=O)[C@H](CCCN)NC(=O)[C@H](CC(=O)O)NC(=O)[C@H](CC(C)C)NC(=O)[C@](C)(CC(C)C)NC(=O)[C@@H](NC(=O)[C@H](CO)NC(=O)[C@H](CCCCNC(=O)COCCOCCNC(=O)COCCOCCNC(=O)CC[C@H](NC(=O)CCCCCCCCCCCCC(=O)O)C(=O)O)NC(=O)[C@H](CC(=O)O)NC(=O)[C@H](CO)NC(=O)[C@@H](NC(=O)[C@](C)(Cc1ccccc1F)NC(=O)[C@@H](NC(=O)CNC(=O)[C@H](CCC(=O)O)NC(=O)C(C)(C)NC(=O)[C@@H](N)Cc1ccc(O)cc1)[C@@H](C)O)[C@@H](C)O)[C@@H](C)CC)C(=O)N[C@@H](C)C(=O)N[C@@H](CCC(N)=O)C(=O)NC(C)(C)C(=O)N[C@@H](CCC(=O)O)C(=O)N[C@@](C)(Cc1ccccc1)C(=O)N[C@H](C(=O)N[C@H](CCC(=O)O)C(=O)N[C@@](C)(Cc1ccc(O)cc1)C(=O)N[C@@H](CC(C)C)C(=O)N[C@H](C(=O)N[C@@H](CCCCNC(=O)COCCOCCNC(=O)COCCOCCNC(=O)CC[C@H](NC(=O)CCCCCCCCCCCCC(=O)O)C(=O)O)C(=O)NCC(=O)NCC(=O)N1CCC[C@H]1C(=O)N[C@@H](CO)C(=O)N[C@@H](CO)C(=O)NCC(=O)N[C@@H](C)C(=O)N1CCC[C@H]1C(=O)N1CCC[C@H]1C(=O)N1CCC[C@H]1C(=O)N[C@@H](CO)C(N)=O)[C@@H](C)CC)[C@@H](C)CC) [Example 111],> 9950,2.28,121,0.0202,76.1
Y[Aib]EGT[αMePhe(2-F)]TSDK([AEEA-AEEA-γGlu-C14 diacid])SI[αMeL]LD[Orn]IAQ[Aib]E[αMeF]I[dE][αMeY]LIEGGK([AEEA-AEEA-γGlu-C14 diacid])SSGAPPPS-NH2 (N-terminus assumed; SMILES CC[C@H](C)[C@H](NC(=O)[C@H](CCCN)NC(=O)[C@H](CC(=O)O)NC(=O)[C@H](CC(C)C)NC(=O)[C@](C)(CC(C)C)NC(=O)[C@@H](NC(=O)[C@H](CO)NC(=O)[C@H](CCCCNC(=O)COCCOCCNC(=O)COCCOCCNC(=O)CC[C@H](NC(=O)CCCCCCCCCCCCC(=O)O)C(=O)O)NC(=O)[C@H](CC(=O)O)NC(=O)[C@H](CO)NC(=O)[C@@H](NC(=O)[C@](C)(Cc1ccccc1F)NC(=O)[C@@H](NC(=O)CNC(=O)[C@H](CCC(=O)O)NC(=O)C(C)(C)NC(=O)[C@@H](N)Cc1ccc(O)cc1)[C@@H](C)O)[C@@H](C)O)[C@@H](C)CC)C(=O)N[C@@H](C)C(=O)N[C@@H](CCC(N)=O)C(=O)NC(C)(C)C(=O)N[C@@H](CCC(=O)O)C(=O)N[C@@](C)(Cc1ccccc1)C(=O)N[C@H](C(=O)N[C@H](CCC(=O)O)C(=O)N[C@@](C)(Cc1ccc(O)cc1)C(=O)N[C@@H](CC(C)C)C(=O)N[C@H](C(=O)N[C@@H](CCC(=O)O)C(=O)NCC(=O)NCC(=O)N[C@@H](CCCCNC(=O)COCCOCCNC(=O)COCCOCCNC(=O)CC[C@H](NC(=O)CCCCCCCCCCCCC(=O)O)C(=O)O)C(=O)N[C@@H](CO)C(=O)N[C@@H](CO)C(=O)NCC(=O)N[C@@H](C)C(=O)N1CCC[C@H]1C(=O)N1CCC[C@H]1C(=O)N1CCC[C@H]1C(=O)N[C@@H](CO)C(N)=O)[C@@H](C)CC)[C@@H](C)CC) [Example 112],> 9950,2.26,,0.0229,93.6
"YXEGTXTSDXXIXLDXKAQXEFIKXLIEGGPSSGAPPPS (Aib2, αMeF(2F)6, 4Pal10, Aib11, αMeL13, Orn16, Aib20, αMeY25, K17 and K24: K(AEEA2-(γ-Glu)-CO-(CH2)12-CO2H), C-terminal NH2) [Example 113]",> 9950,0.291,,0.0331,97.9
"YXEGTXTSDVSIXLDXKAQXEFIKXLIEGGPSSGAPPPS (Aib2, αMeF(2F)6, αMeL13, Orn16, Aib20, αMeY25, K17 and K24: K(AEEA2-(γ-Glu)-CO-(CH2)12-CO2H), C-terminal NH2) [Example 114]",> 9950,0.176,91.7,0.0613,93.8
"YXEGTXTSDXSIXLDXKAQXEFIXXLIEGGKSSGAPPPS (Aib2, αMeF(2F)6, 4Pal10, αMeL13, Orn16, Aib20, D-Glu24, αMeY25, K17 and K31: K(AEEA-(γ-Glu)-CO-(CH2)12-CO2H), C-terminal NH2) [Example 11]",> 9950,0.511,,0.0135,
Y[Aib]EGT[αMePhe(2-F)]TSDV[Aib]I[αMeL]LD[Orn]K([AEEA-AEEA-γGlu-C14 diacid])AQ[Aib]EFIK([AEEA-AEEA-γGlu-C14 diacid])[αMeY]LIEGGPSSGAPPPS-NH2 [Example 115],> 9950,0.16,91.6,0.103,
"YXEGTXTSDXSIXLDXKAQXEFIKXLIEGGPSSGAPPPS (Aib2, αMeF(2F)6, Ac5c10, αMeL13, Orn16, Aib20, αMeY25, K17 and K24: K(AEEA2-(γ-Glu)-CO-(CH2)12-CO2H), C-terminal NH2) [Example 116]",> 9950,0.197,,0.137,115
"YXEGTXTSDXXIXLDXKAQXEXIKXLIEGGPSSGAPPPS (Aib2, αMeF(2F)6, 4Pal10, Aib11, αMeL13, Orn16, Aib20, αMeF22, αMeY25, K17 and K24: K(AEEA2-(γ-Glu)-CO-(CH2)12-CO2H), C-terminal NH2) [Example 117]",> 9950,5.6,98.2,0.0352,96.4
"YXEGTXTSDVSIXLDXKAQXEXIKXLIEGGPSSGAPPPS (Aib2, αMeF(2F)6, αMeL13, Orn16, Aib20, αMeF22, αMeY25, K17 and K24: K(AEEA2-(γ-Glu)-CO-(CH2)12-CO2H), C-terminal NH2) [Example 118]",> 9950,0.437,,0.0547,94.7
Y[Aib]EGT[αMePhe(2-F)]TSDV[Aib]I[αMeL]LD[Orn]K([AEEA-AEEA-γGlu-C14 diacid])AQ[Aib]E[αMeF]IK([AEEA-AEEA-γGlu-C14 diacid])[αMeY]LIEGGPSSGAPPPS-NH2 [Example 119],> 9950,0.351,99.4,0.0863,
"YXEGTXTSDXSIXLDXKAQXEXIKXLIEGGPSSGAPPPS (Aib2, αMeF(2F)6, Ac5c10, αMeL13, Orn16, Aib20, αMeF22, αMeY25, K17 and K24: K(AEEA2-(γ-Glu)-CO-(CH2)12-CO2H), C-terminal NH2) [Example 120]",> 9950,1.43,,0.0866,
"YXEGTXTSDXXIXLDXKAQXEXIKXLIEGGPSSGAPPPS (Aib2, αMeF(2F)6, 4Pal10, Aib11, αMeL13, Orn16, Aib20, αMeF22, αMeF25, K17 and K24: K(AEEA2-(γ-Glu)-CO-(CH2)12-CO2H), C-terminal NH2) [Example 121]",> 9950,8.95,,0.0271,92.8
"YXEGTXTSDVSIXLDXKAQXEXIKXLIEGGPSSGAPPPS (Aib2, αMeF(2F)6, αMeL13, Orn16, Aib20, αMeF22, αMeF25, K17 and K24: K(AEEA2-(γ-Glu)-CO-(CH2)12-CO2H), C-terminal NH2) [Example 122]",> 9950,0.41,94.3,0.064,

# From US20230265151A1, “GIP/GLP1 CO-AGONIST COMPOUNDS” (priority 2020, published 2023)
